Test results taken from patent publication US9957297B2, “Template-fixed peptidomimetics as inhibitors of FPR1” (POLYPHOR AG, priority 2011, dated 2018).
Bridges are numbered along the chain shown (N, C = ends). Primed or numbered codes have the meaning given here. [ ]: non-standard residue; d: D form. Phe(4-CF3) = N[C@@H](Cc1ccc(C(F)(F)F)cc1)C(=O)O; dPro(4S-NH2) = N[C@@H]1CN[C@@H](C(=O)O)C1; dTic = O=C(O)[C@H]1Cc2ccccc2CN1; dPip′ = not defined here; Dab = NCC[C@H](N)C(=O)O

T1: Formyl-Peptide Receptor 1 (UniProt P21462 1-350, limits assumed)
T1 sequence (looked up): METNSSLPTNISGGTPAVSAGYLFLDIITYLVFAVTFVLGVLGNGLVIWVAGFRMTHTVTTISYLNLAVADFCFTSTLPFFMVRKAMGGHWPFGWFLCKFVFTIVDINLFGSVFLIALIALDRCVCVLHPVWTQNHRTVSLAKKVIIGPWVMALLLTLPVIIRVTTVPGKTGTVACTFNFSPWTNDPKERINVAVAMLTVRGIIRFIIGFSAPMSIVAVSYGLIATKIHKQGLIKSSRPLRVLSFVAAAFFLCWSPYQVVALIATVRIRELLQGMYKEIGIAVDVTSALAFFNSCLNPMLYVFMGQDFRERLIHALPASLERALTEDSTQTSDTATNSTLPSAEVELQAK


These binders were tested against T1, Formyl-Peptide Receptor 1 (assay: cell-based or functional assay).

Binder | β-Arrestin IC50 [nM]
cyclo(YHKCHG[dP]WTICYEK[dA]P) (disulfide 4-11; SMILES CC[C@H](C)[C@@H]1NC(=O)[C@H]([C@@H](C)O)NC(=O)[C@H](Cc2c[nH]c3ccccc23)NC(=O)[C@H]2CCCN2C(=O)CNC(=O)[C@H](Cc2c[nH]cn2)NC(=O)[C@@H]2CSSC[C@H](NC1=O)C(=O)N[C@@H](Cc1ccc(O)cc1)C(=O)N[C@@H](CCC(=O)O)C(=O)N[C@@H](CCCCN)C(=O)N[C@H](C)C(=O)N1CCC[C@H]1C(=O)N[C@@H](Cc1ccc(O)cc1)C(=O)N[C@@H](Cc1c[nH]cn1)C(=O)N[C@@H](CCCCN)C(=O)N2) [cyclo(-Tyr-His-Lys-Cys-His-Gly-^DPro-Trp-Thr-Ile-Cys-Tyr-Glu-Lys-^DAla-Pro-)] | 65
cyclo(YHACWG[dP]WTICYQK[dK]P) (disulfide 4-11; SMILES CC[C@H](C)[C@@H]1NC(=O)[C@H]([C@@H](C)O)NC(=O)[C@H](Cc2c[nH]c3ccccc23)NC(=O)[C@H]2CCCN2C(=O)CNC(=O)[C@H](Cc2c[nH]c3ccccc23)NC(=O)[C@@H]2CSSC[C@H](NC1=O)C(=O)N[C@@H](Cc1ccc(O)cc1)C(=O)N[C@@H](CCC(N)=O)C(=O)N[C@@H](CCCCN)C(=O)N[C@H](CCCCN)C(=O)N1CCC[C@H]1C(=O)N[C@@H](Cc1ccc(O)cc1)C(=O)N[C@@H](Cc1c[nH]cn1)C(=O)N[C@@H](C)C(=O)N2) [cyclo(-Tyr-His-Ala-Cys-Trp-Gly-^DPro-Trp-Thr-Ile-Cys-Tyr-Gln-Lys-^DLys-Pro-)] | 195
cyclo(YHACWG[dP]WTICYQK[dA]P) (disulfide 4-11; SMILES CC[C@H](C)[C@@H]1NC(=O)[C@H]([C@@H](C)O)NC(=O)[C@H](Cc2c[nH]c3ccccc23)NC(=O)[C@H]2CCCN2C(=O)CNC(=O)[C@H](Cc2c[nH]c3ccccc23)NC(=O)[C@@H]2CSSC[C@H](NC1=O)C(=O)N[C@@H](Cc1ccc(O)cc1)C(=O)N[C@@H](CCC(N)=O)C(=O)N[C@@H](CCCCN)C(=O)N[C@H](C)C(=O)N1CCC[C@H]1C(=O)N[C@@H](Cc1ccc(O)cc1)C(=O)N[C@@H](Cc1c[nH]cn1)C(=O)N[C@@H](C)C(=O)N2) [cyclo(-Tyr-His-Ala-Cys-Trp-Gly-^DPro-Trp-Thr-Ile-Cys-Tyr-Gln-Lys-^DAla-Pro-)] | 133
cyclo(YHKCHG[dA]WTICYEK[dP]E) (disulfide 4-11; SMILES CC[C@H](C)[C@@H]1NC(=O)[C@H]([C@@H](C)O)NC(=O)[C@H](Cc2c[nH]c3ccccc23)NC(=O)[C@@H](C)NC(=O)CNC(=O)[C@H](Cc2c[nH]cn2)NC(=O)[C@@H]2CSSC[C@H](NC1=O)C(=O)N[C@@H](Cc1ccc(O)cc1)C(=O)N[C@@H](CCC(=O)O)C(=O)N[C@@H](CCCCN)C(=O)N1CCC[C@@H]1C(=O)N[C@@H](CCC(=O)O)C(=O)N[C@@H](Cc1ccc(O)cc1)C(=O)N[C@@H](Cc1c[nH]cn1)C(=O)N[C@@H](CCCCN)C(=O)N2) [cyclo(-Tyr-His-Lys-Cys-His-Gly-^DAla-Trp-Thr-Ile-Cys-Tyr-Glu-Lys-^DPro-Glu-)] | 77
cyclo(YHKCHG[dP]WTICYEK[dK]P) (disulfide 4-11; SMILES CC[C@H](C)[C@@H]1NC(=O)[C@H]([C@@H](C)O)NC(=O)[C@H](Cc2c[nH]c3ccccc23)NC(=O)[C@H]2CCCN2C(=O)CNC(=O)[C@H](Cc2c[nH]cn2)NC(=O)[C@@H]2CSSC[C@H](NC1=O)C(=O)N[C@@H](Cc1ccc(O)cc1)C(=O)N[C@@H](CCC(=O)O)C(=O)N[C@@H](CCCCN)C(=O)N[C@H](CCCCN)C(=O)N1CCC[C@H]1C(=O)N[C@@H](Cc1ccc(O)cc1)C(=O)N[C@@H](Cc1c[nH]cn1)C(=O)N[C@@H](CCCCN)C(=O)N2) [cyclo(-Tyr-His-Lys-Cys-His-Gly-^DPro-Trp-Thr-Ile-Cys-Tyr-Glu-Lys-^DLys-Pro-)] | 385
cyclo(YHACHG[dP]WTICYQK[dT]P) (disulfide 4-11; SMILES CC[C@H](C)[C@@H]1NC(=O)[C@H]([C@@H](C)O)NC(=O)[C@H](Cc2c[nH]c3ccccc23)NC(=O)[C@H]2CCCN2C(=O)CNC(=O)[C@H](Cc2c[nH]cn2)NC(=O)[C@@H]2CSSC[C@H](NC1=O)C(=O)N[C@@H](Cc1ccc(O)cc1)C(=O)N[C@@H](CCC(N)=O)C(=O)N[C@@H](CCCCN)C(=O)N[C@H]([C@H](C)O)C(=O)N1CCC[C@H]1C(=O)N[C@@H](Cc1ccc(O)cc1)C(=O)N[C@@H](Cc1c[nH]cn1)C(=O)N[C@@H](C)C(=O)N2) [cyclo(-Tyr-His-Ala-Cys-His-Gly-^DPro-Trp-Thr-Ile-Cys-Tyr-Gln-Lys-^DThr-Pro-)] | 641
cyclo(YHKCHG[dP]WTICYEK[dK]E) (disulfide 4-11; SMILES CC[C@H](C)[C@@H]1NC(=O)[C@H]([C@@H](C)O)NC(=O)[C@H](Cc2c[nH]c3ccccc23)NC(=O)[C@H]2CCCN2C(=O)CNC(=O)[C@H](Cc2c[nH]cn2)NC(=O)[C@@H]2CSSC[C@H](NC1=O)C(=O)N[C@@H](Cc1ccc(O)cc1)C(=O)N[C@@H](CCC(=O)O)C(=O)N[C@@H](CCCCN)C(=O)N[C@H](CCCCN)C(=O)N[C@@H](CCC(=O)O)C(=O)N[C@@H](Cc1ccc(O)cc1)C(=O)N[C@@H](Cc1c[nH]cn1)C(=O)N[C@@H](CCCCN)C(=O)N2) [cyclo(-Tyr-His-Lys-Cys-His-Gly-^DPro-Trp-Thr-Ile-Cys-Tyr-Glu-Lys-^DLys-Glu-)] | 124

Second part, the binder after the results:

β-Arrestin IC50 [nM] | Binder
172 | cyclo(YHKC[Phe(4-CF3)]G[dP]WTICYEK[dP]P) (disulfide 4-11; SMILES CC[C@H](C)[C@@H]1NC(=O)[C@H]([C@@H](C)O)NC(=O)[C@H](Cc2c[nH]c3ccccc23)NC(=O)[C@H]2CCCN2C(=O)CNC(=O)[C@H](Cc2ccc(C(F)(F)F)cc2)NC(=O)[C@@H]2CSSC[C@H](NC1=O)C(=O)N[C@@H](Cc1ccc(O)cc1)C(=O)N[C@@H](CCC(=O)O)C(=O)N[C@@H](CCCCN)C(=O)N1CCC[C@@H]1C(=O)N1CCC[C@H]1C(=O)N[C@@H](Cc1ccc(O)cc1)C(=O)N[C@@H](Cc1c[nH]cn1)C(=O)N[C@@H](CCCCN)C(=O)N2) [cyclo(-Tyr-His-Lys-Cys-Phe(4CF3)-Gly-^DPro-Trp-Thr-Ile-Cys-Tyr-Glu-Lys-^DPro-Pro-)]
126 | cyclo(YHKCWG[dP]WTICYEK[dK]P) (disulfide 4-11; SMILES CC[C@H](C)[C@@H]1NC(=O)[C@H]([C@@H](C)O)NC(=O)[C@H](Cc2c[nH]c3ccccc23)NC(=O)[C@H]2CCCN2C(=O)CNC(=O)[C@H](Cc2c[nH]c3ccccc23)NC(=O)[C@@H]2CSSC[C@H](NC1=O)C(=O)N[C@@H](Cc1ccc(O)cc1)C(=O)N[C@@H](CCC(=O)O)C(=O)N[C@@H](CCCCN)C(=O)N[C@H](CCCCN)C(=O)N1CCC[C@H]1C(=O)N[C@@H](Cc1ccc(O)cc1)C(=O)N[C@@H](Cc1c[nH]cn1)C(=O)N[C@@H](CCCCN)C(=O)N2) [cyclo(-Tyr-His-Lys-Cys-Trp-Gly-^DPro-Trp-Thr-Ile-Cys-Tyr-Glu-Lys-^DLys-Pro-)]
39 | cyclo(YHKCHG[dP]WTICYEK[dPro((4S)OH)]P) (disulfide 4-11) [cyclo(-Tyr-His-Lys-Cys-His-Gly-^DPro-Trp-Thr-Ile-Cys-Tyr-Glu-Lys-^DPro((4S)OH)-Pro-)]
54 | cyclo(YHKCWG[dP]WTICYEK[dP]P) (disulfide 4-11; SMILES CC[C@H](C)[C@@H]1NC(=O)[C@H]([C@@H](C)O)NC(=O)[C@H](Cc2c[nH]c3ccccc23)NC(=O)[C@H]2CCCN2C(=O)CNC(=O)[C@H](Cc2c[nH]c3ccccc23)NC(=O)[C@@H]2CSSC[C@H](NC1=O)C(=O)N[C@@H](Cc1ccc(O)cc1)C(=O)N[C@@H](CCC(=O)O)C(=O)N[C@@H](CCCCN)C(=O)N1CCC[C@@H]1C(=O)N1CCC[C@H]1C(=O)N[C@@H](Cc1ccc(O)cc1)C(=O)N[C@@H](Cc1c[nH]cn1)C(=O)N[C@@H](CCCCN)C(=O)N2) [cyclo(-Tyr-His-Lys-Cys-Trp-Gly-^DPro-Trp-Thr-Ile-Cys-Tyr-Glu-Lys-^DPro-Pro-)]
56 | cyclo(YHKCHG[dP]WTICYEK[dTic]P) (disulfide 4-11; SMILES CC[C@H](C)[C@@H]1NC(=O)[C@H]([C@@H](C)O)NC(=O)[C@H](Cc2c[nH]c3ccccc23)NC(=O)[C@H]2CCCN2C(=O)CNC(=O)[C@H](Cc2c[nH]cn2)NC(=O)[C@@H]2CSSC[C@H](NC1=O)C(=O)N[C@@H](Cc1ccc(O)cc1)C(=O)N[C@@H](CCC(=O)O)C(=O)N[C@@H](CCCCN)C(=O)N1Cc3ccccc3C[C@@H]1C(=O)N1CCC[C@H]1C(=O)N[C@@H](Cc1ccc(O)cc1)C(=O)N[C@@H](Cc1c[nH]cn1)C(=O)N[C@@H](CCCCN)C(=O)N2) [cyclo(-Tyr-His-Lys-Cys-His-Gly-^DPro-Trp-Thr-Ile-Cys-Tyr-Glu-Lys-^DTic-Pro-)]
22 | cyclo(YHKCYG[dP]WTICYEK[dP]P) (disulfide 4-11; SMILES CC[C@H](C)[C@@H]1NC(=O)[C@H]([C@@H](C)O)NC(=O)[C@H](Cc2c[nH]c3ccccc23)NC(=O)[C@H]2CCCN2C(=O)CNC(=O)[C@H](Cc2ccc(O)cc2)NC(=O)[C@@H]2CSSC[C@H](NC1=O)C(=O)N[C@@H](Cc1ccc(O)cc1)C(=O)N[C@@H](CCC(=O)O)C(=O)N[C@@H](CCCCN)C(=O)N1CCC[C@@H]1C(=O)N1CCC[C@H]1C(=O)N[C@@H](Cc1ccc(O)cc1)C(=O)N[C@@H](Cc1c[nH]cn1)C(=O)N[C@@H](CCCCN)C(=O)N2) [cyclo(-Tyr-His-Lys-Cys-Tyr-Gly-^DPro-Trp-Thr-Ile-Cys-Tyr-Glu-Lys-^DPro-Pro-)]
41 | cyclo(YHKCHG[dP]WTICYEK[dPro(4S-NH2)]P) (disulfide 4-11) [cyclo(-Tyr-His-Lys-Cys-His-Gly-^DPro-Trp-Thr-Ile-Cys-Tyr-Glu-Lys-^DPro((4S)NH2)-Pro-)]
53 | cyclo(YHKCWG[dP]WTICYE[Dab][dP]P) (disulfide 4-11) [cyclo(-Tyr-His-Lys-Cys-Trp-Gly-^DPro-Trp-Thr-Ile-Cys-Tyr-Glu-Dab-^DPro-Pro-)]
29 | cyclo(YHKCHG[dP]WTICYEK[dPip′]P) (disulfide 4-11) [cyclo(-Tyr-His-Lys-Cys-His-Gly-^DPro-Trp-Thr-Ile-Cys-Tyr-Glu-Lys-^DPip-Pro-)]
126 | cyclo(YHKCWG[dP]WTICYEK[dA]P) (disulfide 4-11; SMILES CC[C@H](C)[C@@H]1NC(=O)[C@H]([C@@H](C)O)NC(=O)[C@H](Cc2c[nH]c3ccccc23)NC(=O)[C@H]2CCCN2C(=O)CNC(=O)[C@H](Cc2c[nH]c3ccccc23)NC(=O)[C@@H]2CSSC[C@H](NC1=O)C(=O)N[C@@H](Cc1ccc(O)cc1)C(=O)N[C@@H](CCC(=O)O)C(=O)N[C@@H](CCCCN)C(=O)N[C@H](C)C(=O)N1CCC[C@H]1C(=O)N[C@@H](Cc1ccc(O)cc1)C(=O)N[C@@H](Cc1c[nH]cn1)C(=O)N[C@@H](CCCCN)C(=O)N2) [cyclo(-Tyr-His-Lys-Cys-Trp-Gly-^DPro-Trp-Thr-Ile-Cys-Tyr-Glu-Lys-^DAla-Pro-)]
